According to patent US20230220589A1:

Tests used:
[1] = target: M17-modified H NTAA target peptides; assay: encoding assay; P2 P
[2] = target: M17-modified S NTAA target peptides; assay: encoding assay; P2 P
[3] = target: M17-modified W NTAA target peptides; assay: encoding assay; P2 P
[4] = target: M17-modified I NTAA target peptides; assay: encoding assay; P2 P
[5] = target: M17-modified A NTAA target peptides; assay: encoding assay; P2 P
[6] = target: M17-modified L NTAA target peptides; assay: encoding assay; P2 P
[7] = target: M17-modified E NTAA target peptides; assay: encoding assay; P2 P
[8] = target: M17-modified F NTAA target peptides; assay: encoding assay; P2 P
[9] = target: M17-modified N NTAA target peptides; assay: encoding assay; P2 P
[10] = target: M17-modified Q NTAA target peptides; assay: encoding assay; P2 P
[11] = target: M17-modified G NTAA target peptides; assay: encoding assay; P2 P
[12] = target: M17-modified V NTAA target peptides; assay: encoding assay; P2 P
[13] = target: M17-modified P NTAA target peptides; assay: encoding assay; P2 P
[14] = target: M17-modified D NTAA target peptides; assay: encoding assay; P2 P
[15] = target: M17-modified H NTAA target peptides; assay: encoding assay; P2 F
[16] = target: M17-modified S NTAA target peptides; assay: encoding assay; P2 F
[17] = target: M17-modified T NTAA target peptides; assay: encoding assay; P2 F
[18] = target: M17-modified M NTAA target peptides; assay: encoding assay; P2 F
[19] = target: M17-modified W NTAA target peptides; assay: encoding assay; P2 F
[20] = target: M17-modified I NTAA target peptides; assay: encoding assay; P2 F
[21] = target: M17-modified A NTAA target peptides; assay: encoding assay; P2 F
[22] = target: M17-modified L NTAA target peptides; assay: encoding assay; P2 F
[23] = target: M17-modified E NTAA target peptides; assay: encoding assay; P2 F
[24] = target: M17-modified F NTAA target peptides; assay: encoding assay; P2 F
[25] = target: M17-modified N NTAA target peptides; assay: encoding assay; P2 F
[26] = target: M17-modified Q NTAA target peptides; assay: encoding assay; P2 F
[27] = target: M17-modified G NTAA target peptides; assay: encoding assay; P2 F
[28] = target: M17-modified V NTAA target peptides; assay: encoding assay; P2 F
[29] = target: M17-modified P NTAA target peptides; assay: encoding assay; P2 F
[30] = target: M17-modified D NTAA target peptides; assay: encoding assay; P2 F
[31] = target: M17-modified H NTAA target peptides; assay: encoding assay; P2 Q
[32] = target: M17-modified S NTAA target peptides; assay: encoding assay; P2 Q
[33] = target: M17-modified T NTAA target peptides; assay: encoding assay; P2 Q
[34] = target: M17-modified W NTAA target peptides; assay: encoding assay; P2 Q
[35] = target: M17-modified I NTAA target peptides; assay: encoding assay; P2 Q
[36] = target: M17-modified A NTAA target peptides; assay: encoding assay; P2 Q
[37] = target: M17-modified L NTAA target peptides; assay: encoding assay; P2 Q
[38] = target: M17-modified E NTAA target peptides; assay: encoding assay; P2 Q
[39] = target: M17-modified Y NTAA target peptides (M17-Y-P2-peptide); assay: encoding assay; P2 Q
[40] = target: M17-modified F NTAA target peptides; assay: encoding assay; P2 Q
[41] = target: M17-modified N NTAA target peptides; assay: encoding assay; P2 Q
[42] = target: M17-modified Q NTAA target peptides; assay: encoding assay; P2 Q
[43] = target: M17-modified G NTAA target peptides; assay: encoding assay; P2 Q
[44] = target: M17-modified V NTAA target peptides; assay: encoding assay; P2 Q
[45] = target: M17-modified P NTAA target peptides; assay: encoding assay; P2 Q
[46] = target: M17-modified D NTAA target peptides; assay: encoding assay; P2 Q
[47] = target: M44-modified P NTAA target peptides; assay: encoding assay; P2 P
[48] = target: M44-modified W NTAA target peptides; assay: encoding assay; P2 P
[49] = target: M44-modified V NTAA target peptides; assay: encoding assay; P2 P
[50] = target: M44-modified P NTAA target peptides; assay: encoding assay; P2 Q
[51] = target: M44-modified W NTAA target peptides; assay: encoding assay; P2 Q
[52] = target: M44-modified Y NTAA target peptides (M44-Y-P2-peptide); assay: encoding assay; P2 Q
[53] = target: M44-modified G NTAA target peptides (M44-G-P2-peptide); assay: encoding assay; P2 Q
[54] = target: M44-modified T NTAA target peptides; assay: encoding assay; P2 Q
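Note: fraction of recording tags encoded.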

B1: engineered M17-Y binder (SEQ ID NO: 61) (designed binder, not shown: small tags and cut ends; large carriers)
chain: TVPDRSEIAGKWYVVALASNTEFYLREKDWVKSAMARISFLGEDELKVSSAVPSPNGCYKVERTWKKTSDDGEVYNSRAAKLKVEVLDTDYKSYAVIYATRVKDGRTDHQMILYSRSPEVSPAATAIFRKLAGERNYTDEMVAMLPRQEECTVDEV
Which results are given for B1?
encoding yield [1]: 0.03; encoding yield [2]: 0.02; encoding yield [3]: 0.02; encoding yield [4]: 0.06; encoding yield [5]: 0.02; encoding yield [6]: 0.05; encoding yield [7]: 0.02; encoding yield [8]: 0.12; encoding yield [9]: 0.01; encoding yield [10]: 0.02; encoding yield [11]: 0.01; encoding yield [12]: 0.02; encoding yield [13]: 0.01; encoding yield [14]: 0.02; encoding yield [15]: 0.03; encoding yield [16]: 0.02; encoding yield [17]: 0.02; encoding yield [18]: 0.03; encoding yield [19]: 0.05; encoding yield [20]: 0.06; encoding yield [21]: 0.02; encoding yield [22]: 0.04; encoding yield [23]: 0.04; encoding yield [24]: 0.07; encoding yield [25]: 0.02; encoding yield [26]: 0.02; encoding yield [27]: 0.03; encoding yield [28]: 0.02; encoding yield [29]: 0.01; encoding yield [30]: 0.02; encoding yield [31]: 0.04; encoding yield [32]: 0.03; encoding yield [33]: 0.01; encoding yield [34]: 0.01; encoding yield [35]: 0.02; encoding yield [36]: 0.03; encoding yield [37]: 0.03; encoding yield [38]: 0.02; encoding yield [39]: 0.03; encoding yield [40]: 0.04; encoding yield [41]: 0.03; encoding yield [42]: 0.01; encoding yield [43]: 0.02; encoding yield [44]: 0.03; encoding yield [45]: 0.01; encoding yield [46]: 0.01

B2: upgraded binder after additional maturation round (SEQ ID NO: 62) (designed binder, not shown: small tags and cut ends; large carriers)
chain: TVPDRSEIAGKWYVVALASNTEFYLRGKDRVKSAMVRISFQGEDELKVSSAVPSPNGCYKVERTWKKTSDDGEVYNSRAAKLKVEVLDTDYKSYAVIYATRVKDRRTDHQMILYSRSPDVSPAATAIFRKLAGERNYTDEMVAMLPRQEECTVDEV
With B2 as the binder, how does the encoding yield [1] read?
The encoding yield was 0.04.

What about the encoding yield [2] of the same binder?
Its encoding yield is 0.04.

What about the encoding yield [3] of the same binder?
The encoding yield was 0.11.

And the encoding yield [4]?
Its encoding yield is 0.07.

What about the encoding yield [5] of the same binder?
The encoding yield was 0.02.

And the encoding yield [6]?
The encoding yield was 0.08.

What about the encoding yield [7] of the same binder?
The encoding yield was 0.02.

What about the encoding yield [8] of the same binder?
The encoding yield was 0.12.

And the encoding yield [9]?
The encoding yield was 0.02.

And the encoding yield [10]?
Its encoding yield is 0.02.

And the encoding yield [11]?
The encoding yield was 0.02.

What about the encoding yield [12] of the same binder?
The encoding yield was 0.03.

What about the encoding yield [13] of the same binder?
The encoding yield was 0.01.

And the encoding yield [14]?
Its encoding yield is 0.03.

And the encoding yield [15]?
Its encoding yield is 0.04.

And the encoding yield [16]?
Its encoding yield is 0.02.

What about the encoding yield [17] of the same binder?
Its encoding yield is 0.03.

What about the encoding yield [18] of the same binder?
The encoding yield was 0.05.

And the encoding yield [19]?
Its encoding yield is 0.11.

And the encoding yield [20]?
The encoding yield was 0.06.

And the encoding yield [21]?
Its encoding yield is 0.04.

And the encoding yield [22]?
Its encoding yield is 0.05.

What about the encoding yield [23] of the same binder?
The encoding yield was 0.04.

What about the encoding yield [24] of the same binder?
The encoding yield was 0.1.

And the encoding yield [25]?
The encoding yield was 0.03.

What about the encoding yield [26] of the same binder?
Its encoding yield is 0.03.

What about the encoding yield [27] of the same binder?
Its encoding yield is 0.04.

What about the encoding yield [28] of the same binder?
The encoding yield was 0.02.

What about the encoding yield [29] of the same binder?
Its encoding yield is 0.02.

And the encoding yield [30]?
The encoding yield was 0.02.

And the encoding yield [31]?
The encoding yield was 0.03.

And the encoding yield [32]?
Its encoding yield is 0.03.

And the encoding yield [33]?
Its encoding yield is 0.02.

What about the encoding yield [34] of the same binder?
Its encoding yield is 0.02.

What about the encoding yield [35] of the same binder?
The encoding yield was 0.03.

And the encoding yield [36]?
Its encoding yield is 0.04.

And the encoding yield [37]?
The encoding yield was 0.04.

What about the encoding yield [38] of the same binder?
The encoding yield was 0.02.

And the encoding yield [39]?
The encoding yield was 0.15.

And the encoding yield [40]?
Its encoding yield is 0.04.

And the encoding yield [41]?
Its encoding yield is 0.04.

What about the encoding yield [42] of the same binder?
Its encoding yield is 0.01.

What about the encoding yield [43] of the same binder?
The encoding yield was 0.01.

And the encoding yield [44]?
Its encoding yield is 0.04.

And the encoding yield [45]?
Its encoding yield is 0.02.

And the encoding yield [46]?
Its encoding yield is 0.02.

B3: engineered M44-L binder (SEQ ID NO: 31) (designed binder, not shown: small tags and cut ends; large carriers)
chain: QDSTQNLIPAPPLISVPLQPGFWTERFQGRWFLVGFAGNAVQKERQSRLTMQSLILELQEDNSYNITAINVRGQGCRYIISTLVPSSRPGQFTLGNIHSYPQIQSLDVQVADTDYDQFAMVFLQGTSENKQYFEVALAGRTKGLSDELKERFVSFAKSLGLKDNNIVFSVPTDQCIDN
Which encoding yield [47] does the source give for B3 here?
The encoding yield was 0.01.

What about the encoding yield [48] of the same binder?
Its encoding yield is 0.04.

What about the encoding yield [49] of the same binder?
Its encoding yield is 0.02.

And the encoding yield [50]?
Its encoding yield is 0.01.

And the encoding yield [51]?
The encoding yield was 0.02.

What about the encoding yield [52] of the same binder?
Its encoding yield is 0.03.

And the encoding yield [53]?
The encoding yield was 0.01.

What about the encoding yield [54] of the same binder?
The encoding yield was 0.02.

B4: engineered M44-A binder (SEQ ID NO: 42) (designed binder, not shown: small tags and cut ends; large carriers)
chain: QVSVQPNFQQDKFLGRWFVAGLASNSSWDREKVAALSGAKMVVAPATDGGLNVTRTMLRKNQCETYTGLLQPAGSLGSYSWRSPHPGSTGSESVVETDYDQYALVYGQGSKGPGEDLRAAALWSRTQTPRAELKEKFTAFSKAQGFTEDTIVFLPQTDKCMTEQ
B4 was tested. Which encoding yield [47] did it give?
Its encoding yield is 0.01.

What about the encoding yield [48] of the same binder?
The encoding yield was 0.01.

What about the encoding yield [49] of the same binder?
Its encoding yield is 0.01.

What about the encoding yield [50] of the same binder?
Its encoding yield is 0.01.

And the encoding yield [51]?
Its encoding yield is 0.02.

What about the encoding yield [52] of the same binder?
Its encoding yield is 0.02.

What about the encoding yield [53] of the same binder?
The encoding yield was 0.01.

And the encoding yield [54]?
The encoding yield was 0.02.
